Experiment [1] has as its target T1, vitronectin (VN) (human, UniProt P04004 20-478).
T1 construct: also called immobilized VN
The experiment in a line: plate assay: uPAR/mFc (5 nM) with increasing uPA on immobilized VN (FIG. 4C). How it is done:
96-well immuno plates (NUNC MaxiSorb, blackwell) were coated with pro-uPA or VN (100 μl, 10 nM) diluted in coating buffer (50 mM sodium carbonate, pH 9.6) at 4° C. ON. Plates were washed with wash buffer (phosphate buffered saline (PBS) containing 0.1% Tween-20 (PBS-T)) and non-specific binding sites blocked (0.15 ml/well) with blocking buffer (PBS containing 2% bovine serum albumin (BSA)) for 1-2 hour at RT. […] The binding was allowed to occur for 1-2 hours at RT and the plates washed three times with wash buffer. Bound uPAR/mFc was detected by sequential incubations with a biotinylated goat anti-mouse Fc antibody (Sigma) and Eu³⁺ labeled streptavidin (Perkin Elmer). Bound Eu³⁺ was quantified by dissociation-enhanced time-resolved fluorescence measurement using an Envision Xcite plate reader (Perkin Elmer) using the DELFIA protocol.
To test the activity of uPAR-lock as an antagonist of the uPAR:VN-interaction the author utilized a binding assay in which uPAR/mFc is allowed to bind immobilized VN in the presence of uPA (FIG. 4C). In this assay uPAR/mFc binds to immobilized VN with high affinity in an uPA-dependent manner. To test the activity of uPAR-lock the author conducted the experiment with a fixed concentration of uPAR/mFc (1 nM) and an excess of uPA (5 nM) mixed with increasing concentrations of uPAR-lock or uPA for comparison (FIG. 4D). […]

Experiment [2] concerns the target T2, urokinase-type plasminogen activator (uPA) (human, UniProt P00749 21-431).
T2 construct: also called pro-uPA; immobilized uPA
The experiment in a line: plate assay: increasing uPAR/mFc on immobilized uPA, anti-mouse Fc and Eu-streptavidin (FIG. 4A). On the procedure:
Immobilized uPA was incubated with increasing concentrations of uPAR tagged with a mouse Fc (uPAR/mFc). After washing bound uPAR/mFc was quantified using a biotinylated anti-mouse Fc antibody and Europium labeled streptavidin. Note that uPAR/mFc display specific high-affinity binding to immobilized uPA.
96-well immuno plates (NUNC MaxiSorb, blackwell) were coated with pro-uPA or VN (100 μl, 10 nM) diluted in coating buffer (50 mM sodium carbonate, pH 9.6) at 4° C. ON. Plates were washed with wash buffer (phosphate buffered saline (PBS) containing 0.1% Tween-20 (PBS-T)) and non-specific binding sites blocked (0.15 ml/well) with blocking buffer (PBS containing 2% bovine serum albumin (BSA)) for 1-2 hour at RT. After washing with PBS-T, wells were incubated with uPAR/mFc (1 nM) in the presence or absence of the agonists and antagonists to be tested prepared in dilution buffer (PBS containing 1% BSA). The binding was allowed to occur for 1-2 hours at RT and the plates washed three times with wash buffer. Bound uPAR/mFc was detected by sequential incubations with a biotinylated goat anti-mouse Fc antibody (Sigma) and Eu³⁺ labeled streptavidin (Perkin Elmer). Bound Eu³⁺ was quantified by dissociation-enhanced time-resolved fluorescence measurement using an Envision Xcite plate reader (Perkin Elmer) using the DELFIA protocol.

T1 sequence (P04004 20-478): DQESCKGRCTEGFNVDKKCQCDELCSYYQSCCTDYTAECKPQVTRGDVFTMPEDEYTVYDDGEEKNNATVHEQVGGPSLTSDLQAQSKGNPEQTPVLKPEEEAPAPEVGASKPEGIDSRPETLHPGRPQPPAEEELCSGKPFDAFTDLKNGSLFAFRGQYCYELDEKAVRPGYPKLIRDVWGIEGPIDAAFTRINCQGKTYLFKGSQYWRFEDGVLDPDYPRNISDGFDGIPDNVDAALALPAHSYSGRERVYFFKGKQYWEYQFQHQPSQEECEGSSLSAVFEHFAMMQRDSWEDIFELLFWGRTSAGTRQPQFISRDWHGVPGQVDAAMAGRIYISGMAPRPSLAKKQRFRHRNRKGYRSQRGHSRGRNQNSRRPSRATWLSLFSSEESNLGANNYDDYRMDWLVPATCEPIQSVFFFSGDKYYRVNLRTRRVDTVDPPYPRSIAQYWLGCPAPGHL

B1: uPAR/mFc (human uPAR tagged with a murine immunoglobulin heavy chain constant region) (Fc fusion)
chain: LRCMQCKTNGDCRVEECALGQDLCRTTIVRLWEEGEELELVEKSCTHSEKTNRTLSYRTGLKITSLTEVVCGLDLCNQGNSGRAVTYSRSRYLECISCGSSDMSCERGRHQSLQCRSPEEQCLDVVTHWIQEGEEGRPKDDRHLRGCGYLPGCPGSNGFHNNDTFHFLKCCNTTKCNEGPILELENLPQNGRQCYSCKGNSTHGCSSEETFLIDCRGPMNQCLVATGTHEPKNQSYMVRGCATASMCQHAHLGDAFSMNHIDVSCCTKSGCNHPDLDLEVLFQGPLEAGAG
notes: also called uPAR tagged with a mouse Fc; Fc-tagged uPAR; not shown: mouse immunoglobulin IgG1 heavy chain, amino acids 216-441 numbered according to Adetugbo 1978 (clone IRAVp968B035D); th
Consider B1, for which the binding result in experiment [1] and in experiment [2] was “binds” each time.

(Values after patent US20130280162A1 (IFOM FONDAZIONE ISTITUTO FIRC DI ONCOLOGIA MOLECOLARE, published 2013).)
